These results are taken from US20130156779A1 (GlaxoSmithKline, published 2013).

Where two headings read alike, the source gives them in different places.

In assay [1] the target is T1, Human HER3 receptor (human, UniProt P21860 20-1342). Briefly: cell-based or functional assay.
Assay [2] deals with T2, Human HER3 ECD domain III (human, UniProt P21860 330-495).
T2 construct: also called D3; Domain 3
The assay is described as follows: affinity summary table, method not given.

In assay [3] the target is T3, Full-length human HER3 extracellular domain (ECD) (human, UniProt P21860 20-643).
T3 construct: also called human HER3 ECD; HER-3 ECD full length
The assay is described as follows: affinity summary table, method not given.

Assay [4] addresses T1, Human HER3 receptor. Briefly: cell-based or functional assay. This is another data set of the same source.
The target in assay [5] is T1, Human HER3 receptor. The assay is described as follows: cell-based or functional assay. This is another data set of the same source.
For assay [6], the target named is T1, Human HER3 receptor. Briefly: cell-based or functional assay. The source holds these as a separate data set.
In assay [7] the target is T4, Murine HER3 on B16 and B16F10 melanoma cells (murine, UniProt Q61526 20-1339).
T4 construct: whole, on cells
Briefly: flow cytometry on B16F10 murine melanoma cells, antibody labelled with a Zenon APC kit [a]. The source says: B16F10 ZENON™ labeling kits: [0530] Mouse IgG1 PE—Invitrogen Z25021 [0531] Mouse IgG1 APC—Invitrogen Z25051 [0532] Mouse IgG2b APC—Invitrogen Z25151 Method: Commercially available anti-human EGFR and HER2 antibodies were provided. A commercially available HER3 antibody represented by the provider to recognizes human HER3 was provided. The murine 15D5 antibody, murine 1D9 antibody (M5.1D9.1F5), murine 24H5 antibody (M5.24H5.C2) antibodies were also provided. These antibodies were labeled with either PE or APC using the ZENON™ labeling kits (Invitrogen). 5×10⁶ B 16, or B16F10, murine melanoma cells were added to flow cytometry tubes containing the labeled anti-HER3 antibodies. Cells and antibodies were incubated for 30 minutes on ice in the dark, washed and resuspended in FACS buffer. Cells were then analyzed on a FACSCANTO™ flow cytometer. Data analysis was performed using […]™ software, developed by BD Biosciences. Cell populations were gated using forward vs. side scatter and histograms of fluorescent intensities were generated.

Assay [8] addresses T5, Human HER3 ECD domain II (human, UniProt P21860 184-329).
T5 construct: also called D2; Domain 2
The assay is described as follows: DELFIA, plate coated with HER3 Domain II 1ug/ml. The protocol:
(§1) Dissociation Enhanced Lanthanide Fluorescence Immunoassay (DELFIA) for detection of the anti-HER3 antibodies to HER3 extracellular domain (ECD) was used. The DELFIA procedures were as follows: white Maxisorp 96-well plates (Nunc #437796) were coated with 100 ul/well of 1 ug/ml HER-3 ECD full length or HER3Domain I, II, III and IV in 0.1M carbonate buffer pH 9.5 overnight at 4° C. These plates were blocked with casein in TBS (Thermo Scientific #37532 lot#JD121074). The neat hybridoma supernatant, or the purified anti-HER3 antibodies diluted in Perkin Elmer #4002-0010 Assay Buffer from 10 ug/ml (or 100 ug/ml) to 0.01 ug/ml, or the PK serum samples with a minimum of 3 dilutions (100 ul/well) were added to the plate. These samples were incubated for 2 hours at room temperature while on a plate shaker or overnight at 4° C. […] The plate was washed 4 times with tris-buffer plus 0.05% tween-20 (Perkin Elmer #4010-0010) on a BIOTEK™ plate washer following each antibody incubation step. 100 ul/well of DELFIA enhancement solution (Perkin Elmer 1244-105) was added for 5 minutes at room temperature. […] Antibody binding was recorded as europium counts per well.

Assay [9] deals with T2, Human HER3 ECD domain III. Briefly: BIACORE 2000 SPR, mAb captured, HER3 protein as analyte, 25 C. As to the method: (§2) Mouse monoclonal antibodies were analysed using rabbit anti-mouse (RAM) IgG (GE Healthcare BR-1008-38) covalently coupled to a BIACORE™ CM5 chip (GE HEalthcare BR-1000-14) by primary amine chemistry (NHS/EDC activated) (GE Healthcare amine coupling kit BR-1000-50). Chimeric and humanized competitor monoclonal antibodies were analyzed using anti-human, Fc specific monoclonal (GE Healthcare BR-1008-39) similarly coupled. Each chip was also prepared with a reference surface to which no capture reagent antibody is coupled. Sensorgrams for cycles run with differing analyte concentrations are acquired for kinetic analysis. A cycle consists of capturing the monoclonal on the surface, a short stabilization period with flowing run buffer followed by binding of a defined concentration of analyte (ECD or sub-domain protein). Injection of analyte for surface binding (3-4 minutes) yields the association part of curve. This is followed by buffer only flow (3-4 minutes) which allows recording of dissociation data.
(§3) The general method for affinity analysis is as follows. First, chips were prepared and tested for reasonance units (RU) captured for several monoclonal antibody concentrations. Kinetic cycles were then run in which monoclonal antibody was captured to a level of approximately 100RU, analyte protein was allowed to bind then dissociate and the surface was regenerated to remove all but covalently coupled protein. RAM chips were regenerated with capture kit supplied 100 mM glycine pH1.7 and anti-human chips with capture kit supplied 3M MgCl₂. […] Several buffer cycles were run prior to analyte protein to ensure cycle consistency and in some experiments a buffer cycle is used a “double reference[.]” Analytes used were human full length HER3 extra cellular domain (ECD), separate sub-domains of the extracellular portion of human HER3 (D1, D2, D3, D4), or combination HER3 domain proteins (D1-2 and D2-3).
(In SPR one partner is held on a chip, and binding of the other changes the refractive index at the surface.)

Assay [10] deals with T6, Human HER3 ECD domain 2-3 protein (human, UniProt P21860 184-495).
T6 construct: also called D2-3; sub-domains 2-3
The assay is described as above. The protocol: as §2, §3

In assay [11] the target is T3, Full-length human HER3 extracellular …. The description is as above. As to the method:
as §2, §3

The target is the same in assay [12]. The assay is described as follows: DELFIA (europium time-resolved fluorescence), plate coated with HER3 ECD Full Length 1ug/ml, antibody titrated 0.001-10 ug/ml. As to the method: as §1
Assay [13] addresses T7, Full-length rat HER3 extracellular domain (ECD) (rat, UniProt Q62799 20-643).
T7 construct: extracellular domain; also called Rat HER3 ECD
Briefly: BIACORE SPR, mAb captured on protein A, ECD as analyte, 25 C. As to the method:
(§4) Protein A was immobilised on a CM5 chip by primary amine coupling to a level of ˜1300 resonance units (RU′s), humanized antibodies were then captured on this chip, All antibodies were captured to a similar level (100-200 RU's). […] Alternatively, the full-length, rat HER3 ECD or the full-length cynomolgus monkey ECD were passed over the chip at 10 nM, 5 nM, 2.5 nM, 1:25nM, 0.625 nM and 0.3125nM. An injection of buffer alone was used to double reference the binding curves as indicated in Example 1. Regeneration of this surface was achieved using 10 mM Glycine buffer pH 1.5. The binding data was fitted to the 1:1 model using BIACORE™ Evaluation software. Runs were carried out at 25° C. on a BIACORE™ T3000 using HBS-EP as running buffer.

The target in assay [14] is T3, Full-length human HER3 extracellular …. The description is as above. The protocol:
as §4

Assay [15] concerns the target T5, Human HER3 ECD domain II. The assay is described as follows: DELFIA, plate coated with HER3 Domain II 1ug/ml. The source holds these as a separate data set.
Assay [16] concerns the target T3, Full-length human HER3 extracellular …. The assay is described as follows: DELFIA (europium time-resolved fluorescence), plate coated with HER3 ECD Full Length 1ug/ml, antibody titrated 0.001-10 ug/ml. The source holds these as a separate data set.

T1 sequence (P21860 20-1342 limits assumed): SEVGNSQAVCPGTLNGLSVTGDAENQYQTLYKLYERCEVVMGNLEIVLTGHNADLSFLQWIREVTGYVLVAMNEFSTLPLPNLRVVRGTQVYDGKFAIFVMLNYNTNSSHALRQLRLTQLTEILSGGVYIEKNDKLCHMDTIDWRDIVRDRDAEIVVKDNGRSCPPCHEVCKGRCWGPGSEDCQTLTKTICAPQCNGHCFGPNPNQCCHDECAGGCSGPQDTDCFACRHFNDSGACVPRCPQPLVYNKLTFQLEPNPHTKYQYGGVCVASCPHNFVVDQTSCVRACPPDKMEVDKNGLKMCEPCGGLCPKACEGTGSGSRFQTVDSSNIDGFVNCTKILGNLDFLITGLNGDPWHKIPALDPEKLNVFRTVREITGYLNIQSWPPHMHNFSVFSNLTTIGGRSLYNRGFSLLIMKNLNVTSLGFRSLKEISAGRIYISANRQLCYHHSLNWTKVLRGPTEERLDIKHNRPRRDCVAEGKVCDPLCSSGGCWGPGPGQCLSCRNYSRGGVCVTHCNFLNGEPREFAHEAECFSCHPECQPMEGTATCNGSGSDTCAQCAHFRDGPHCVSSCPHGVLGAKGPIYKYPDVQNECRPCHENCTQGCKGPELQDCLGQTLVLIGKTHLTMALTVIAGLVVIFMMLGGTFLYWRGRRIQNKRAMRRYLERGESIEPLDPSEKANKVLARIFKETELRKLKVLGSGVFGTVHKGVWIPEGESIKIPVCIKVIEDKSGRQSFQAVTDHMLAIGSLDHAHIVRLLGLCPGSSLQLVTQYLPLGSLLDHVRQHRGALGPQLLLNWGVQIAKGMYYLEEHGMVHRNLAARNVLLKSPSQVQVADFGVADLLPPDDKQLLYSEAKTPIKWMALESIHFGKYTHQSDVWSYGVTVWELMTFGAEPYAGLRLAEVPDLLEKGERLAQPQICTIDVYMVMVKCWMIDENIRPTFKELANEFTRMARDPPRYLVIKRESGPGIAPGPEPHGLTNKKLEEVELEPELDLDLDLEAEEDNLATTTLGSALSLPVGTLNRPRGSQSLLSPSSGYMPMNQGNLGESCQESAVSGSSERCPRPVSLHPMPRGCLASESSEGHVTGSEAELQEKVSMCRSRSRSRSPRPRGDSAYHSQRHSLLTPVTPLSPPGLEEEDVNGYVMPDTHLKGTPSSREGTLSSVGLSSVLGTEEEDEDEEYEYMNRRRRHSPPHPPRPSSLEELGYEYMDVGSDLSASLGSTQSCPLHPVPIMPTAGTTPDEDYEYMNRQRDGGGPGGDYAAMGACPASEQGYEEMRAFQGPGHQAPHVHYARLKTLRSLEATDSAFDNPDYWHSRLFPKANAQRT
T7 sequence (Q62799 20-643): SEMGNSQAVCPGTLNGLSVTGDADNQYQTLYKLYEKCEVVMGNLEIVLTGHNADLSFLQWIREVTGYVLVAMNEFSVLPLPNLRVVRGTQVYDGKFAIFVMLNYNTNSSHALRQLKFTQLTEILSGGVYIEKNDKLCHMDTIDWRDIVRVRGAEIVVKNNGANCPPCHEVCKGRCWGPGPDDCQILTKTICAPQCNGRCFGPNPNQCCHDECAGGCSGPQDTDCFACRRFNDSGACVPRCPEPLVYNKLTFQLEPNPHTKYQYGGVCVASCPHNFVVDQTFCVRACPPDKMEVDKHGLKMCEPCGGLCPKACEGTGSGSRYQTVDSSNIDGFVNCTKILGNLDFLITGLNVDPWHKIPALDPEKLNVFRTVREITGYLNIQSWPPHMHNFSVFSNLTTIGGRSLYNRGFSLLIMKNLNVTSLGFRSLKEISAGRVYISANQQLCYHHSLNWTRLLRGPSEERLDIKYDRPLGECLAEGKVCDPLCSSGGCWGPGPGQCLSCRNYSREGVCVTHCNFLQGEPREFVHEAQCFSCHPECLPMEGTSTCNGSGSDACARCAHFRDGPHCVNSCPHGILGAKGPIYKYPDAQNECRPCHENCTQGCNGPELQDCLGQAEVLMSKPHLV
T5 sequence (P21860 184-329): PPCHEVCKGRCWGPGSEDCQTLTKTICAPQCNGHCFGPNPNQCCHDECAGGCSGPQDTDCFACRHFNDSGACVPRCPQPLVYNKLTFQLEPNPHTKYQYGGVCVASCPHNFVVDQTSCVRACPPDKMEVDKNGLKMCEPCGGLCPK
T3 sequence (P21860 20-643): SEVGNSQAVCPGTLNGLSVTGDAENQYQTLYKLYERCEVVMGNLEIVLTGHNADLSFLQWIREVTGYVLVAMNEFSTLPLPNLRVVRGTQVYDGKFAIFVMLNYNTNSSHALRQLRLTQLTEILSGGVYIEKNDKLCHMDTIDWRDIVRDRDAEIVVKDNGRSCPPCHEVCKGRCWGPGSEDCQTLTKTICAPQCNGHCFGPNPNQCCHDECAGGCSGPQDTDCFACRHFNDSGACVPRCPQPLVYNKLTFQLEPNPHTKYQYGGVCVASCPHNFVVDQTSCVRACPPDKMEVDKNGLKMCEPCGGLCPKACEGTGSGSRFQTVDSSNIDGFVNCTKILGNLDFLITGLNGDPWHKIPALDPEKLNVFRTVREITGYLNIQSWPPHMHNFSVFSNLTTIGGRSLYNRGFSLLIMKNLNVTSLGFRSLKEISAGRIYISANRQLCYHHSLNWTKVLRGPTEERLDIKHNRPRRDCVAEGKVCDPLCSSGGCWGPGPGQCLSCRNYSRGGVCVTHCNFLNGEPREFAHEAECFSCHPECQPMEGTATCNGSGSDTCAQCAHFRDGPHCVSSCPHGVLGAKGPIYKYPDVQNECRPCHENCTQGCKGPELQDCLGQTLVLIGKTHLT
T2 sequence (P21860 330-495): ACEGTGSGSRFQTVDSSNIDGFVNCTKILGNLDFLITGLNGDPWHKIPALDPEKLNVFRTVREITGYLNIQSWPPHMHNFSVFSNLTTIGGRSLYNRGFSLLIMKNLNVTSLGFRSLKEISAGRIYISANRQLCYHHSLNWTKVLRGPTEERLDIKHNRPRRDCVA
T6 sequence (P21860 184-495): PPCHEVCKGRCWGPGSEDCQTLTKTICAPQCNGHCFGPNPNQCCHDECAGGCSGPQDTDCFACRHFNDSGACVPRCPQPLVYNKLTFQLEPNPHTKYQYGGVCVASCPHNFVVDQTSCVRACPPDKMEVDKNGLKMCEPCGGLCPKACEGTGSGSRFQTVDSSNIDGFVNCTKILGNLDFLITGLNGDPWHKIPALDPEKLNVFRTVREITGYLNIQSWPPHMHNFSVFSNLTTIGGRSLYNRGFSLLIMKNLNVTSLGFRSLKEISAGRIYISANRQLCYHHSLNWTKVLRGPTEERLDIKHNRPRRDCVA
T4 sequence (Q61526 20-1339, one chain of several): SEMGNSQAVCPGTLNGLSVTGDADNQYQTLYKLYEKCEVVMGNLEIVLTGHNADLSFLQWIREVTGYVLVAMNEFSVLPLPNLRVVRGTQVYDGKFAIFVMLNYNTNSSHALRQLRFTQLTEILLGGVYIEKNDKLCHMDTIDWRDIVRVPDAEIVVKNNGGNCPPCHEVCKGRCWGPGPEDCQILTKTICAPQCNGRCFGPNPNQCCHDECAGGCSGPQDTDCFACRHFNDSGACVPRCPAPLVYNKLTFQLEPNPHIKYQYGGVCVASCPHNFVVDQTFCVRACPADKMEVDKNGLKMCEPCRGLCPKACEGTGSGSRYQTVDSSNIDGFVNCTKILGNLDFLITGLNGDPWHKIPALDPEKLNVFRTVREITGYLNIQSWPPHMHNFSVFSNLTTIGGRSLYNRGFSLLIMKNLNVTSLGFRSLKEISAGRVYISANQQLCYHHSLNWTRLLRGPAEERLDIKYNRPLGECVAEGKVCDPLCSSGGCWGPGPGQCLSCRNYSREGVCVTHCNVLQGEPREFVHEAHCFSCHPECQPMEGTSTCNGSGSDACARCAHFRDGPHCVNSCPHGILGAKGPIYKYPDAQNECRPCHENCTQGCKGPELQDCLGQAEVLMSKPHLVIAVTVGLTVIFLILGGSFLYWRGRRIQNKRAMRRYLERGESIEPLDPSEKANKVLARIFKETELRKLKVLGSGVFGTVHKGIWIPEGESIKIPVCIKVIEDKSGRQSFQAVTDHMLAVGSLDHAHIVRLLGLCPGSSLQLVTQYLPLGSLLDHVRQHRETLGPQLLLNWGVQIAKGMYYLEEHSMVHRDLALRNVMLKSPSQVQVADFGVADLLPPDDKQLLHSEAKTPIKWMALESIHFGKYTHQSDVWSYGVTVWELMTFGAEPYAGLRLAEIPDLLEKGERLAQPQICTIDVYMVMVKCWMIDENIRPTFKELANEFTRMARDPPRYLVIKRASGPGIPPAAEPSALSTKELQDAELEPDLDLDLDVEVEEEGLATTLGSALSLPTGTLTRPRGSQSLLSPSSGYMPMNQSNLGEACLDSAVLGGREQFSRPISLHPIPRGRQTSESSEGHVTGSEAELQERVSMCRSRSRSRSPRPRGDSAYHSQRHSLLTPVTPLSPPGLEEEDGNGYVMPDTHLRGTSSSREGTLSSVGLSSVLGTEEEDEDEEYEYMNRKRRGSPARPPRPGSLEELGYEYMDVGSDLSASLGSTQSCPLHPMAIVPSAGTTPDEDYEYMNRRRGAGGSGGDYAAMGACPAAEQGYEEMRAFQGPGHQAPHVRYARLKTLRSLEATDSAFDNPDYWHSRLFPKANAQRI

B1: Murine 1D9 antibody (M5.1D9.1F5) (antibody, IgG2b, V domains shown)
VH: QVQLQQPGAELVRPGTSVKLSCKASGYTFTSYWMHWVKQRPGQGLEWIGVIDPSDGYSHYNQKFKGKATLTVDTSSSTAYMQLSSLTSEDSAVYYCAGGLAGTLDYWGQGTTLTVSS
VL: DVLMTQTPLSLPVSLGDQASISCRSSQSIVHSSGNTYLQWFLQKPGQSPKLLISKVSNRFSGVPDRFSGSGSGTDFTLRISRVEAEDLGLYYCFQGSHVPWTFGGGTKLEIK
notes: Mouse monoclonal, IgG2b; also called m1D9
With B1, the “Phospho-AKT ELISA IC50, heregulin induced, BxPC3 cells” value (“Phospho-AKT ELISA IC50” below) with Human HER3 receptor [1] amounted to 0.0151 µg/mL. The molecule further came in with a Kd in assay [2] of 0.39 nM. This molecule also gave a Kd in [3] of approximately 1 nM. Further, in the assay with Human HER3 receptor [4], the “Phospho-HER3 ELISA IC50, heregulin induced, BT-474 cells” value is 0.0223 µg/mL; the “Phospho-HER3 ELISA IC50, heregulin induced, BxPC3 cells” value (from here on “Phospho-HER3 ELISA IC50 … BxPC3 cells”) was 0.0068 µg/mL; the “Phospho-HER3 ELISA IC50, heregulin induced, CHL-1 cells” value (from here on “Phospho-HER3 ELISA IC50 … CHL-1 cells”) is 0.0406 µg/mL; the “Phospho-HER3 ELISA IC50, heregulin induced, MCF7 cells” value was found to be 0.0104 µg/mL. Besides, in the assay with Human HER3 receptor [4], the “Phospho-HER3 ELISA IC50, heregulin induced, N87 cells” value (from here on “Phospho-HER3 ELISA IC50 … N87 cells”) turned out to be 0.0204 µg/mL and the “Phospho-HER3 ELISA IC50, heregulin induced, SK-BR-3 cells” value came out at 0.0032 µg/mL. In the assay with Human HER3 receptor [5], the “Phospho-HER3 ELISA IC50, betacellulin induced, SK-BR-3 cells” value is 0.0036 µg/mL; the “Phospho-HER3 ELISA IC50, epidermal growth factor induced, SK-BR-3 cells” value was 0.003 µg/mL; the “Phospho-HER3 ELISA IC50, heregulin induced, SK-BR-3 cells” value worked out at 0.0032 µg/mL. Moreover, in the assay with Human HER3 receptor [6], the “Phospho-HER3 … IC50, heregulin induced, CHO EGFR + HER3” value was found to be 0.0435 µg/mL and the “Phospho-HER3 … IC50, heregulin induced, CHO HER4 + HER3” value came out at 0.13 µg/mL. Besides, the binding result in assay [7] is recorded as “binds”. For the same molecule, in the assay with Human HER3 ECD domain II [8], the binding result is “no binding (tested: 10 ug/ml)”. For the same molecule, in assay [9], the Kd is 0.38 nM and the kon turned out to be 2.54e+06 M⁻¹ s⁻¹. Besides, in [10], the Kd came to 0.47 nM and the kon was 893000 M⁻¹ s⁻¹. Moreover, in [11], the Kd came out at 0.82 nM and the kon is 355000 M⁻¹ s⁻¹.

B2: Humanized 1D9 POTELLIGENT™ antibody (antibody, human IgG1, kappa)
heavy: not shown
light: DIQMTQSPSSLSASVGDRVTITCRSSQSIVHSSGNTYLQWFQQKPGKAPKLLIYKVSNRFSGVPSRFSGSGSGTDFTLTISSLQPEDFAVYYCFQGSHVPWTFGQGTKLEIKRTVAAPSVFIFPPSDEQLKSGTASVVCLLNNFYPREAKVQWKVDNALQSGNSQESVTEQDSKDSTYSLSSTLTLSKADYEKHKVYACEVTHQGLSSPVTKSFNRGEC
modifications: non-fucosylated glycans on the marked N* residue
notes: Same chains as the humanized 1D9 antibody, expressed in FUT8- cells; also called humanized 1D9 H6L2 POTELLIGENT antibody
Regarding B2, the “Phospho-AKT ELISA IC50” value with Human HER3 receptor [1] worked out at 0.0228 µg/mL. Moreover, the “EC50 (read off the curve)” value in [12] is approximately 0.03 µg/mL. In assay [13], the Kd is 3.37 nM, the dissociation rate constant (koff) came out at 0.0011 s⁻¹ and the kon was 326000 M⁻¹ s⁻¹. In assay [14], this molecule showed a Kd of 2.01 nM, a koff of 0.00223 s⁻¹ and a kon of 1.11e+06 M⁻¹ s⁻¹. Further, in the assay with Human HER3 receptor [4], the “Phospho-HER3 ELISA IC50 … BxPC3 cells” value is 0.0056 µg/mL; the “Phospho-HER3 ELISA IC50 … CHL-1 cells” value was found to be 0.0282 µg/mL; the “Phospho-HER3 ELISA IC50 … N87 cells” value turned out to be 0.0175 µg/mL; the “Phospho-HER3 ELISA IC50, heregulin induced, SK-BR-3 cells” value is 0.0034 µg/mL. Also, the binding result with Human HER3 ECD domain II [8] is “no binding (tested: 10 ug/ml)”.

B3: Humanized 1D9 antibody (antibody, human IgG1, kappa)
heavy: not shown
light: B2 light
notes: Expressed in FUT8+ cells; also called HZ1D9; H6L2
Consider B3, for which the binding result in the assay with Human HER3 ECD domain II [15] is on record as “no binding (tested: 10 ug/ml)”. Moreover, the “Phospho-AKT ELISA IC50” value with Human HER3 receptor [1] came to 0.0244 µg/mL. Besides, the “EC50 (read off the curve)” value in assay [16] is approximately 0.04 µg/mL. In assay [14], binding was put at a Kd of 4.5 nM, the off-rate constant (koff) was found to be 0.00184 s⁻¹ and the kon is 410000 M⁻¹ s⁻¹. In the assay with Human HER3 receptor [4], the “Phospho-HER3 ELISA IC50 … BxPC3 cells” value turned out to be 0.0116 µg/mL; the “Phospho-HER3 ELISA IC50 … CHL-1 cells” value worked out at 0.0365 µg/mL; the “Phospho-HER3 ELISA IC50 … N87 cells” value came to 0.0218 µg/mL; the “Phospho-HER3 ELISA IC50, heregulin induced, SK-BR-3 cells” value was found to be 0.0036 µg/mL.

Usually Kd stands for the constant that tells how readily two partners part at equilibrium. As a reminder, the kon is the rate constant with which the complex forms. In general, EC50 (read off the curve) refers to the concentration that produces a half-maximal response. A high value points to lower potency in that assay. Broadly, the koff is the rate constant with which the complex falls apart. Low readings indicate slow dissociation, high ones fast dissociation.
